The target in one assay is T1, FcγRI (R&D Systems) (UniProt P12314 16-288).
T1 construct: Bought reagent, coated on the plate at 1 µg/mL; also called Fc gamma receptor I; CD64
Kind of assay: ELISA-type plate assay, FcγRI coated, monomeric antibody, detected with AP-conjugated goat anti-human IgG F(ab')2, RFU readout. Here is the method:
(§1) Fcγ receptor binding assays were carried out as described (Shields, et al. (2001) J. Biol. Chem. 276:6591-6604) with minor modifications. High protein binding 96-well plates (Corning Costar) were coated with 100 μL per well of Fcγ receptor solutions in PBS at the following concentrations: 1 μg/mL for both FcγRI (R&D Systems) and FcγRIIa (Pichia pastoris produced), 2 μg/mL for FcγRIIb (P. pastoris produced), 0.8 μg/mL for FcγRIIIa-F158, and 0.4 μg/mL for FcγRIIIa-V158 (both P. pastoris produced). All Pichia pastoris produced receptors were expressed and purified as described (Li, et al. (2006) Nature Biotechnology 24:210-215). Monomeric antibody samples added to the FcγRI plate were serially diluted in assay diluent (1×PBS, 1% BSA, and 0.05% Tween20) and 100 μL, per well was added to the plate. Antibody samples prepared for the remaining receptors require a one hour dimerization step with half molar ratio of goat anti-human IgG F(ab′)2 F(ab′)2 that is conjugated with alkaline phosphatase for detection. […] FcγRI bound sample antibody was detected using the same goat anti-human IgG F(ab′)2 alkaline phosphatase conjugated F(ab′)2. Sample antibody binding was quantified by measuring excitation at 340 nm and emission at 465 nm after 18 hour incubation with SuperPhos, 4-MUP Fluorescence AP Substrate Detection System (Virolabs).
A general note: ELISA stands for enzyme-linked immunosorbent assay.

Assay [1] has as its target T2, FcγRIIb (Pichia pastoris produced) (UniProt P31994 43-217, limits assumed).
T2 construct: also called FcgRIIB; CD32B
T2 sequence (looked up): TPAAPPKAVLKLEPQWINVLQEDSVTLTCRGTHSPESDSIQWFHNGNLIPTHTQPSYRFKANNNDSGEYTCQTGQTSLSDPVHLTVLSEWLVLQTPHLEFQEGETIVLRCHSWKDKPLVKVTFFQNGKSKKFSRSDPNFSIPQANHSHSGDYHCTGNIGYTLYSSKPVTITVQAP
Kind of assay: fold change of the Table 12 affinities; Table 13 fold change computed from the Table 12 affinities. Here is the method: as §1

The target in assay [2] is T3, FcγRIIIa-F158 (Pichia pastoris produced) (UniProt P08637 17-208, limits assumed).
T3 construct: also called FcγRIIIA LF; FcgRIIIA LF
T3 sequence (P08637 17-208 limits assumed): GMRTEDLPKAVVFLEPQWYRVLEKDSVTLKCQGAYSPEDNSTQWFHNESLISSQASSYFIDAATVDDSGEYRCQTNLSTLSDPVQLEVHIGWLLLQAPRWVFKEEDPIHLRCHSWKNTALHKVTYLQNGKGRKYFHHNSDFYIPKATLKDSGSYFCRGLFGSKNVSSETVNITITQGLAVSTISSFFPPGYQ
Kind of assay: ELISA on plate-coated receptor; antibody dimerized with anti-human IgG F(ab')2-AP; ELISA IC50, YGLY23258 (dimer), Table 5 experiment. As for the experimental part:
as §1

Assay [3] deals with T2, FcγRIIb (Pichia pastoris produced). Kind of assay: FcγR affinity assay 'as described in Example 7', n = 3; printed as Affinity (nM) ± STDEV; Table 12 affinity (nM) assay, n = 3; not the dimer ELISA of Tables 3-7.

These results are taken from patent US20140086916A1 (Merck Sharp & Dohme, published 2014).

T1 sequence (P12314 16-288 limits assumed): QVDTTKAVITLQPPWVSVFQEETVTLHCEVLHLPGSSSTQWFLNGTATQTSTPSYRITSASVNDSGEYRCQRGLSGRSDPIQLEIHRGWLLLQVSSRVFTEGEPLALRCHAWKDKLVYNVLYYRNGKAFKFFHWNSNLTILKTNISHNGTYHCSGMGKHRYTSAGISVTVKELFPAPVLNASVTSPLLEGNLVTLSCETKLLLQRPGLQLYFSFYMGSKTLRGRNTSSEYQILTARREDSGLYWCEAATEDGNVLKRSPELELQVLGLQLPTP

B1: 1F11 wildtype (parent) humanized anti-PCSK9 monoclonal IgG1 antibody (antibody)
heavy: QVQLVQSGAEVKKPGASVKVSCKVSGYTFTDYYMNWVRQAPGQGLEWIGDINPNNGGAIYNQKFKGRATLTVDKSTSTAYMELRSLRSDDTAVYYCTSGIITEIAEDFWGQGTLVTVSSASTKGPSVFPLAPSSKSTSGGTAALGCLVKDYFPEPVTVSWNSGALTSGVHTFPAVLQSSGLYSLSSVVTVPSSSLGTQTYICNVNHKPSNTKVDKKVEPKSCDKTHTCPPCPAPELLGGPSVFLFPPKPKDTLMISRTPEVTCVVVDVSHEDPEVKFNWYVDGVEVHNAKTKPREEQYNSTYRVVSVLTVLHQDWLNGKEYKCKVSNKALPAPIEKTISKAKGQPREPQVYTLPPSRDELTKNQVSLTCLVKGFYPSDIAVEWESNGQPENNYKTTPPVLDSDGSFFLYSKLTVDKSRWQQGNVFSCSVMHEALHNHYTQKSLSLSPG
light: DIQMTQSPSSLSASVGDRVTITCKASQNVGTNVVWYQQKPGKAPKALIHSASYRYSGVPSRFSGSGSGTDFTLTISSLQPEDFATYYCQQYKTYPYTFGQGTKVEIKRTVAAPSVFIFPPSDEQLKSGTASVVCLLNNFYPREAKVQWKVDNALQSGNSQESVTEQDSKDSTYSLSSTLTLSKADYEKHKVYACEVTHQGLSSPVTKSFNRGEC
notes: Produced in glycoengineered Pichia pastoris GFI5.0 (strain YGLY21351); also called 1F11 IgG1 GS5.0; YGLY21351
Turning to B1, the EC50 (read off the curve) (usually the midpoint of the concentration-response curve) in the assay with FcγRI (R&D Systems) is roughly 0.08 µg/mL.

B2: 1F11 IgG1 F243A/V264A double mutein anti-PCSK9 antibody (antibody)
heavy: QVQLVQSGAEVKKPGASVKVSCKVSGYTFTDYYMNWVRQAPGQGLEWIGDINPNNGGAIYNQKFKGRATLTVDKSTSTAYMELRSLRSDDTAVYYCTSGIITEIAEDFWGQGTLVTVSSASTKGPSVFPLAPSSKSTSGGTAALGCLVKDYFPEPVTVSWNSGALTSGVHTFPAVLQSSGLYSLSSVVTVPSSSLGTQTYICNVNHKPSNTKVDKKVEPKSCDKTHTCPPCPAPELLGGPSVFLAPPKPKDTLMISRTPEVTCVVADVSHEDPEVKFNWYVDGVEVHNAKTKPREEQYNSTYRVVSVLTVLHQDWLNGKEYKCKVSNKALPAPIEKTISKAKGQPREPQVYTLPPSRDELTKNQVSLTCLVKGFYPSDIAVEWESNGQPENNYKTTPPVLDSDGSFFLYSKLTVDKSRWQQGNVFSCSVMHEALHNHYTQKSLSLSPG
light: DIQMTQSPSSLSASVGDRVTITCKASQNVGTNVVWYQQKPGKAPKALIHSASYRYSGVPSRFSGSGSGTDFTLTISSLQPEDFATYYCQQYKTYPYTFGQGTKVEIKRTVAAPSVFIFPPSDEQLKSGTASVVCLLNNFYPREAKVQWKVDNALQSGNSQESVTEQDSKDSTYSLSSTLTLSKADYEKHKVYACEVTHQGLSSPVTKSFNRGEC
notes: sialylated N-glycans; also called 1F11 DM; YGLY23258
For B2, the “fold change in affinity vs 1F11 IgG1 GS5.0” value in assay [1] came out at 3 fold. The IC50 – broadly, the midpoint of a concentration-inhibition curve – in assay [2] was found to be 0.94 µg/mL. For the same molecule, binding in assay [3] was put at a Kd of 1690 nM.
